*1 amine or outer side, *2 acyl side, *3 side chain or, on linkers, in order; H or OH if unused. Where a SMILES comes first, the peptide text is derived from it. Bridges are numbered along the chain shown (N, C = ends). Roman numbers before positions name the chains, in order. [ ]: non-standard residue; d: D form. Actinocin(9to1) = Cc1c2oc3c(C)ccc(C(=O)[*:1])c3nc-2c(C(=O)[*:2])c(N)c1=O; NMeV = CN[C@H](C(=O)O)C(C)C; Sar = CNCC(=O)O
B1: HRF: flagellin polypeptide from Massilia timonae (SEQ ID NO:10), used as bacterial culture supernatant (protein)
chain: MASVINTNVPSLNSQRNLSTSQAQLNTSIQRLSSGMRINSAKDDAAGLAISDRMNSQIKGMTQATRNANDGVSMAQTAEGALSSSGDILQRIRELAVQSSNSSNSASDRKALQTEVTQLSSELNRIANTTEFNGQKLMDGTLGTANFQVGANAGQLISMTGANFNTSVYGNNQIAGDAAKAAATTSAAATGAFTISGYLGTSAAINTTDADTAKTIAASINNVTGDTGVTATARTDSFLKSAGGAHTMSLASDNSGTGEAVDISFTVGDGGDTADDYAAAISAFNAQTAKTGVTAEYDAVEKGLKLTNSAGENISLTNKAGSADIDMDTYAADGALMASALTLEAGDVGVANGRVTMDSEKSFSVAEGTDTGFELADSSALKSVAKIDISDFEGAQEAIKVADAALSAVNSQRAEYGALQSRFESAISNLSSSTENLSASRSRIVDTDFAAETAKMTRGQILQQAGTSMLAQANSLPNGVLSLLRG

Key:
Assay type in all cases: cell-based
[1] = test system: P-TEFb/HEXIM-1 complex; test: Glycerol gradient sedimentation analysis of P-TEFb/HEXIM-1 complex in J89GFP cells (Western blot)
Protocol: J89GFP cells were left untreated, treated with a high concentration of dactinomycin for 1 hour or with the physiological optimal concentration (0.004 μg/ml or 0.01 μg/ml) for 18 hours. Cell lysates were separated on a glycerol gradient (10-45%). Each gradient fraction was separated on a 10% SDS-PAGE gel and transferred by Western blot. […] Band densities were determined using ImageJ and are presented as relative band density. […] Band densities were determined using ImageJ and are presented as relative band density.
Ten million J89GFP or CA5 T cells were left untreated or treated with 0.004 μg/mL, 0.01 μg/ml or 1 μg/mL dactinomycin for 18 hours or 1 hour, respectively. Cells were washed twice with cold PBS, then lysed for 30 minutes on ice in lysis buffer (0.5% TritonX100, 20 mM HEPES (pH7.9), 150 mM NaCl, 20 mM KCl, 2 mM MgCl2, 1 mM DTT, 0.2 mM EDTA, and protease inhibitor cocktail (P8340; SIGMA)), followed by centrifugation at 14,000 rpm for 10 minutes. The same amount of protein lysate was fractionated on 5 ml of a 10-45% glycerol gradient in lysis buffer in a SW-Ti55 rotor (Beckman Coulter; Miami, Fla.) for 16 hours at 45,000 rpm. Fractions were resolved on 10% SDS-PAGE and transferred to polyvinylidene fluoride membrane. The antibodies used for Western blotting were rabbit anti-Cdk9 (sc-484; Santa Cruz Biotechnology; Santa Cruz, Calif.) and rabbit anti-HEXIM1 (ab25388; Abcam; Cambridge, Mass.), respectively.
To test the idea that dactinomycin primed latent HIV-1 infection for reactivation by releasing P-TEFb (a complex of CDK9 and Cyclin T1) from its complex with HEXIM-1, the latently HIV-1 infected J89GFP or CA5 T cells were treated with 1.0 μg/ml dactinomycin for 1 hour or with the physiological optimal concentration of 0.004 μg/ml for 18 hours. Cell lysates were then separated on a glycerol gradient (10-45%) to reveal possible changes in the composition of the P-TEFb/HEXIM-1 complex. […] Each gradient fraction was separated on a SDS-PAGE gel and subjected to Western blotting. […] Similar results were obtained using anti-HEXIM-1 antibody. […] The minimal dactinomycin concentration to induce a shift towards the small complex was 0.01 μg/ml of dactinomycin. […] Similar results were obtained using the latently infected CA5 T cells.

[2] = test system: NF-κB p50; test: NF-κB p50 activity in nuclear extracts of Jurkat cells (TransAM NF-κB family ELISA)
Protocol: FIGS. 7A-7D are graphs showing the kinetics of HRF-mediated induction of NF-κB activity. Jurkat or latently HIV-1 infected CA5 T cells were stimulated with optimal concentrations of PMA and HRF, and cells were harvested at the indicated time points. Nuclear extracts were generated and (FIGS. 7A and 7C) NF-κB p50 activity and (FIGS. 7B and 7D) NF-κB p65 activity were determined using the TransAM™ NF-κB family ELISA kit (Active Motif; Carlsbad, Calif.).
Cells were grown in RPMI medium supplemented with 10% FBS and 1% PSG to approximately 5×10^5 cells per milliliter. Cells were centrifuged and resuspended in fresh pre-warmed medium. PMA, HRF and/or JNKiV were added immediately at the indicated concentrations. The final cell density for the assay was 1×10^6 cells per milliliter. The culture flasks were kept in a humidified CO2 incubator at 37° C. For each time point, a 1 ml cell suspension was removed and immediately centrifuged at full speed in a tabletop centrifuge for 30 seconds. […] The protein concentration of the extracts was determined by using the BCA protein assay Kit (ThermoFisher). […] The absorbance at 595 nm was determined using a 96 well plate reader (Synergy HT, BIO-Tek; Winooski, Vt.).
(§1) NF-κB activity in nuclear extracts was quantified using the TransAM™ NF-κB family ELISA kit from Active Motif, Inc. (Carlsbad, Calif.) according to the manufacturer's instructions.

[3] = test system: NF-κB p50 and p65; test: NF-κB p50 and p65 activity in PBMCs (TransAM NF-κB family ELISA); conditions: compared to PHA-L
Protocol: FIGS. 8A-8C show HRF induced NF-κB and cytokine expression in peripheral blood mononuclear cells (PBMCs). […] PBMCs were activated with optimal concentrations of either PHA-L or with HRF. Cells were harvested at the indicated time points. Nuclear extracts were generated and NF-κB p50 activity and NF-κB p65 activity were determined using the TransAM™ NF-κB family ELISA kit (Active Motif). […] PBMCs from four different healthy donors were stimulated with an anti-CD3/CD28 antibody combination and infected with a GFP reporter virus on day 4 post-stimulation. HIV-1 replication was monitored in the absence (C) or presence of HRF for 5 days and the achieved HIV-1 infection levels were determined by flow cytometric analysis for the percentage of EGFP-positive cells. All infections were normalized to the infection level in the untreated culture and the histogram represents the mean infection levels obtained in 4 donor cultures±standard deviation. […] Culture supernatants were collected after 24 hours and the concentrations of a panel of cytokines was determined by BioPlex analysis. […]
as §1

[4] = test system: cell culture; test: Cytotoxicity in cell culture and therapeutic index
Excerpt: The HRFs provided herein show little to no cytotoxicity and have a therapeutic index greater than 300. A therapeutic index is a comparison of the amount of a therapeutic agent that causes a therapeutic effect to the amount that causes death. The therapeutic index is a ratio given by the lethal dose of a drug or agent for 50% of the population (LD50) divided by the minimum effective therapeutic dose for 50% of the population (ED50). A high therapeutic index is preferable.

Molecule | shift of CDK9 from large to small complex ([1]; 0.004 μg/ml for 18 hours) | shift of HEXIM-1 towards the small complex ([1]; 0.004 μg/ml for 18 hours) | release of P-TEFb from its complex with HEXIM-1 (anti-CDK9) ([1]; 1 μg/ml for 1 hour, J89GFP) | minimal concentration to induce a shift of HEXIM-1 towards the small complex ([1]; 18 hours) [µg/mL] | NF-κB p50 activation amplitude compared to PMA stimulation ([2]; Jurkat cells) [fold] | duration of induced NF-κB activity in comparison to PMA ([2]; parental Jurkat T cells) | NF-κB p50 and p65 activity peak [3] | cytotoxicity in cell culture [4] | therapeutic index ([4]; LD50/ED50)
Cc1c2oc3c(C)ccc(C(=O)N[C@@H]4C(=O)N[C@H](C(C)C)C(=O)N5CCC[C@H]5C(=O)N(C)CC(=O)N(C)[C@@H](C(C)C)C(=O)O[C@@H]4C)c3nc-2c(C(=O)N[C@@H]2C(=O)N[C@H](C(C)C)C(=O)N3CCC[C@H]3C(=O)N(C)CC(=O)N(C)[C@@H](C(C)C)C(=O)O[C@@H]2C)c(N)c1=O [dactinomycin] (I: T[dV]P[Sar][NMeV] / II: T[dV]P[Sar][NMeV]; ester I:1-I:C, II:1-II:C; linker I:N-II:N via Actinocin(9to1)) | shift of CDK9 presence from the large complex to the small complex was also detected | no shift towards the small complex was observed | quantitatively released P-TEFb | 0.01 |  |  |  |  | 
B1 |  |  |  |  | ~3 | less sustained | very high, but short-lived | far less cytotoxic | > 300

From patent US20140295012A1, “LATENT HUMAN IMMUNODEFICIENCY VIRUS REACTIVATION” (priority 2011, published 2014)
